Test results from patent publication US20200062844A1 (Regeneron, published 2020).
Positions count from the first letter of the chain named. Values belong to the binder of their own block, whether it stands above or below them.

Legend:
[1] = molecular target: T1, hFcεR1α.MMH (human); assay: SPR (Biacore 8k), antibody captured on anti-human Fc, hFcεR1α.MMH injected, 25°C
T1 construct: also called ectodomain of human FcεR1α with C-term myc-myc-6×His tag
T1 chain: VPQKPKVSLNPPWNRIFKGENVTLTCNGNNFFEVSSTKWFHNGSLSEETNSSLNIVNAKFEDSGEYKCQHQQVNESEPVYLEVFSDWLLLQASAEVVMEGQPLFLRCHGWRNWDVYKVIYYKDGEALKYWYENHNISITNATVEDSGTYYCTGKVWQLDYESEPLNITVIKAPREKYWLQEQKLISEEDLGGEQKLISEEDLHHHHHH
Method: (§1) Equilibrium dissociation constants (KD) for human or cynomolgus FcεR1α ectodomain binding to purified anti-FcεR1α monoclonal antibodies (mAbs) and CD3×FcεR1α bispecific antibodies (bsAbs) were determined using a real-time surface plasmon resonance biosensor (SPR-Biacore), Biacore 8k. All binding studies were performed in 10 mM HEPES, 150 mM NaCl, 3 mM EDTA, and 0.05% v/v surfactant Tween-20, pH 7.4 (HBS-ET) running buffer at 25° C. and 37° C.
(§2) The Biacore CM4 sensor surface was first derivatized by amine coupling with a monoclonal mouse anti-human Fc antibody to capture approximately 500-900 RUs anti-FcεR1α monoclonal antibodies or anti-CD3×FcεR1α bispecific monoclonal antibodies. 1 RU (response unit) represents 1 pg of protein per mm², as defined by the manufacturer. The ectodomain of human and cynomolgus FcεR1α reagents were expressed with a C-term myc-myc-6×His tag-hFcεR1α.MMH (SEQ ID NO: 57) and mfFcεR1α.MMH (SEQ ID NO: 58). Different concentrations of FcεR1α reagents were prepared in HBS-ET running buffer (600 nM-7.4 nM; serially diluted by 3-fold) and injected over anti-human Fc captured anti-FcεR1α monoclonal antibodies or anti-CD3×FcεR1α bispecific monoclonal antibodies surfaces for 1 minute at a flow rate of 30 μL/minute. The dissociation of bound FcεR1α reagents was monitored for 4 minutes in HBS-ET running buffer. Association (kₐ) and dissociation (kd) rate constants were determined by fitting the real-time binding sensorgrams to a 1:1 binding model with mass transport limitation using Biacore 8k evaluation software. Binding dissociation equilibrium constants (KD) and dissociative half-lives (t½) were calculated from the kinetic rate constants as: […]

[2] = molecular target: T1, hFcεR1α.MMH; assay: SPR (Biacore 8k), antibody captured on anti-human Fc, hFcεR1α.MMH injected, 37°C
Method: as §1, §2

[3] = molecular target: T2, human FcεR1α expressed on cells (human, UniProt P12319 26-257); assay: cell-based or functional assay
T2 sequence (looked up): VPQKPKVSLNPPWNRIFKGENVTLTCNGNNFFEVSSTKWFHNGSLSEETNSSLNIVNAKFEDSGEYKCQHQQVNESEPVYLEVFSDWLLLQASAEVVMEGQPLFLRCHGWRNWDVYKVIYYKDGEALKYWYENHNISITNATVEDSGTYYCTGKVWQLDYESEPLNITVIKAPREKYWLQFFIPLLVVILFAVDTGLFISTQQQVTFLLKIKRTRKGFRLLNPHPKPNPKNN

[4] = molecular target: T3, human CD3 expressed in Jurkat cells (human, UniProt P07766 23-207; P04234 22-171; P20963 22-164; P09693 23-182); assay: flow cytometry, 70 nM antibody on Jurkat/NFAT-luc cells, No IgE
T3 construct: Endogenous CD3 complex of Jurkat T cells; also called hCD3; Jurkat/NFAT-luc cells
T3 sequence (P07766 23-207 limits assumed, chain 1 of 4): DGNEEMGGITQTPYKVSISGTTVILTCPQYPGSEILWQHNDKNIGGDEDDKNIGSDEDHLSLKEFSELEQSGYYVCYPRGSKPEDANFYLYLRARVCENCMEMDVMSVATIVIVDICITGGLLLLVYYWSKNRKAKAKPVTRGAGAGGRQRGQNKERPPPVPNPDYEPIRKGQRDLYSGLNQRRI
T3 sequence (P04234 22-171 limits assumed, chain 2 of 4): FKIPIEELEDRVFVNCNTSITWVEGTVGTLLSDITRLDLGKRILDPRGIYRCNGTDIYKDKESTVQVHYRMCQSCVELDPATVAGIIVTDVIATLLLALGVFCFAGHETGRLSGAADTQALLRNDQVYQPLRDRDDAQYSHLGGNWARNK
T3 sequence (P20963 22-164 limits assumed, chain 3 of 4): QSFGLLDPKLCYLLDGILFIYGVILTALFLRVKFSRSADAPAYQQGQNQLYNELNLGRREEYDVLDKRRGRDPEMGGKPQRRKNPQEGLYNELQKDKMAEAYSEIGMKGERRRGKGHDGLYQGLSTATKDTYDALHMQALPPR
T3 sequence (P09693 23-182 limits assumed, chain 4 of 4): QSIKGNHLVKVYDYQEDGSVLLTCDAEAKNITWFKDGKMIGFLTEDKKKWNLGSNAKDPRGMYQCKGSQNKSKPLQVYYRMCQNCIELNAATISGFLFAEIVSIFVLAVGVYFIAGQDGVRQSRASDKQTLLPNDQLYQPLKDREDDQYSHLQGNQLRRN
Method: (§3) For flow cytometry analysis, HEK293, HEK293/hFcεR1α/hFcεR1β/hFcεR1γ and HEK293/mf FcεR1α/hFcεR1β/hFcεR1γ cells were collected after dissociation using Enzyme Free Dissociation Buffer (Millipore Cat# S-004), and the cells were pre-incubated with or without 70 nM human IgE, for 30 minutes on ice in FACS buffer (PBS, without Ca⁺⁺ and Mg⁺⁺, (Irvine Scientific, Cat#9240) containing 2% FBS). Jurkat/NFAT-luc cells were also collected. The antibodies at the concentration of 70 nM were then added to 1×10⁶ cells/well of each cell type at 4° C. for 30 minutes. […] Cells were fixed using BD CytoFix™ (Becton Dickinson, Cat. #554655) and analyzed on Accuri™ C6 (BD) or CytoFLEX Flow cytometer (Beckman Coulter). Unstained and secondary antibody alone controls were also tested for all cell lines and a sample was evaluated for viability using the Far Red Fluo viability dye (Thermo Fisher, Cat#L10120) according to the manufacturer's protocol. The results were analyzed using FlowJo software (version 10.0.8, FlowJo) to determine the geometric means of fluorescence for viable cells and the binding ratio was calculated with the mean fluorescence intensity (MFI) of the experimental condition normalized by the MFI of the unstained respective cells.

[5] = molecular target: T4, mfFcεR1α.MMH (cynomolgus (Macaca fascicularis)); assay: SPR (Biacore 8k), antibody captured on anti-human Fc, mfFcεR1α.MMH injected, 37°C
T4 construct: also called mfFceR1a.MMH; ectodomain of cynomolgus FcεR1α with C-term myc-myc-6×His tag
T4 chain: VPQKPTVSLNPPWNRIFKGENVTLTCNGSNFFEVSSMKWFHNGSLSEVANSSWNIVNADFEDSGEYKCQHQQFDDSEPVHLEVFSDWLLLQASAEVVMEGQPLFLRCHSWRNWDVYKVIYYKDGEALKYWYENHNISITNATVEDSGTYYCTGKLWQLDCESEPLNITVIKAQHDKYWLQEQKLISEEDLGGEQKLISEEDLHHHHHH
Method: as §1, §2

[6] = molecular target: T2, human FcεR1α expressed on cells; assay: flow cytometry, 70 nM antibody on HEK293/hFcεR1α/hFcεR1β/hFcεR1γ cells, No IgE
Method: as §3

[7] = molecular target: T2, human FcεR1α expressed on cells; assay: flow cytometry, 70 nM antibody on HEK293/hFcεR1α/hFcεR1β/hFcεR1γ cells pre-incubated with 70 nM human IgE
Method: as §3

[8] = molecular target: T2, human FcεR1α expressed on cells; assay: cell-based or functional assay; remark: listed apart in the source
[9] = molecular target: T5, monkey (cynomolgus) FcεR1α expressed on cells (cynomolgus); assay: flow cytometry, 70 nM antibody on HEK293/mfFcεR1α/hFcεR1β/hFcεR1γ cells, No IgE
T5 construct: range 4-260; On HEK293 cells, co-expressed with human FcεR1β and FcεR1γ; also called mfFcεR1α; HEK293/mfFcεR1α/hFcεR1β/hFcεR1γ cells
Method: as §3

[10] = molecular target: T5, monkey (cynomolgus) FcεR1α expressed on …; assay: flow cytometry, 70 nM antibody on HEK293/mfFcεR1α/hFcεR1β/hFcεR1γ cells pre-incubated with 70 nM human IgE
Method: as §3

[11] = molecular target: T3, human CD3 expressed in Jurkat cells; assay: cell-based or functional assay
[12] = molecular target: T4, mfFcεR1α.MMH; assay: SPR (Biacore 8k), antibody captured on anti-human Fc, mfFcεR1α.MMH injected, 25°C
Method: as §1, §2

- 600 nM hFcεR1α.MMH Bound (RU) [1]: 72 RU
- Kd [1]: 152 nM
- koff [1]: 0.0104 s⁻¹
- kon [1]: 68200 M⁻¹ s⁻¹
- t½ [1]: 66 s
- 600 nM hFcεR1α.MMH Bound (RU) [2]: 43 RU
- Kd [2]: 801 nM
- koff [2]: 0.0588 s⁻¹
- kon [2]: 73500 M⁻¹ s⁻¹
- t½ [2]: 12 s
- EC50, decrease of primary human basophils within PBMC with activated CD8+ T cells [3]: 3.75 nM
- Maximum percent basophil decrease, PBMC with activated CD8+ T cells [3]: 90.6%
- Binding Ratio (MFI of Treated/MFI of Unstained) [4]: 48
- 600 nM mfFceR1a.MMH Bound (RU) [5]: 20 RU
- Kd [5]: 1030 nM
- koff [5]: 0.0399 s⁻¹
- kon [5]: 38600 M⁻¹ s⁻¹
- t½ [5]: 17.4 s
- Binding Ratio (MFI of Treated/MFI of Unstained) [6]: 269
- Binding Ratio (MFI of Treated/MFI of Unstained) [7]: 277
- EC80, cleaved caspase 3+ cleaved PARP+ HEK293/hFcεR1α/hFcεR1β/hFcεR1γ target cells with activated CD8+ T cells [8]: 0.0346 nM
- Maximum percent apoptotic cells, HEK293/hFcεR1α/hFcεR1β/hFcεR1γ target cells with activated CD8+ T cells [8]: 56%
- Binding Ratio (MFI of Treated/MFI of Unstained) [9]: 166
- Binding Ratio (MFI of Treated/MFI of Unstained) [10]: 236
- EC50 [M], NFAT-luciferase in Jurkat/NFAT-luc with HEK293/hFcεR1α/hFcεR1β/hFcεR1γ cells, 10 nM IgE [11]: 1.5e-09 M
- EC50 [M], NFAT-luciferase in Jurkat/NFAT-luc with HEK293/hFcεR1α/hFcεR1β/hFcεR1γ cells, No IgE [11]: 3.4e-10 M
- Fold Activation, Jurkat/NFAT-luc with HEK293/hFcεR1α/hFcεR1β/hFcεR1γ cells, 10 nM IgE [11]: 32 fold
- Fold Activation, Jurkat/NFAT-luc with HEK293/hFcεR1α/hFcεR1β/hFcεR1γ cells, No IgE [11]: 32 fold
- 600 nM mfFceR1a.MMH Bound (RU) [12]: 40 RU
- Kd [12]: 363 nM
- koff [12]: 0.0144 s⁻¹
- kon [12]: 39600 M⁻¹ s⁻¹
- t½ [12]: 48 s
B1: bsAb24919D (bispecific antibody, human IgG4 S228P, kappa)
heavy 1: QVQLQESGPGLVKPSETLSLTCTVSGDSISDYYWIWIRQPPGKGLEWIGYIYYSGSTNYNPSLKSRVTISVATSKNQFSLKLRSVTAADTAMYYCARRNNWNHVRAFDIWGQGTMVTVSSASTKGPSVFPLAPCSRSTSESTAALGCLVKDYFPEPVTVSWNSGALTSGVHTFPAVLQSSGLYSLSSVVTVPSSSLGTKTYTCNVDHKPSNTKVDKRVESKYGPPCPPCPAPPVAGPSVFLFPPKPKDTLMISRTPEVTCVVVDVSQEDPEVQFNWYVDGVEVHNAKTKPREEQFNSTYRVVSVLTVLHQDWLNGKEYKCKVSNKGLPSSIEKTISKAKGQPREPQVYTLPPSQEEMTKNQVSLTCLVKGFYPSDIAVEWESNGQPENNYKTTPPVLDSDGSFFLYSRLTVDKSRWQEGNVFSCSVMHEALHNHYTQKSLSLSLGK
heavy 2: EVQLVESGGGLVQPGRSLRLSCAASGFTFDDYSMHWVRQAPGKGLEWVSGISWNSGSIGYADSVKGRFTISRDNAKNSLYLQMNSLRAEDTALYYCAKYGSGYGKFYYYGMDVWGQGTTVTVSSASTKGPSVFPLAPCSRSTSESTAALGCLVKDYFPEPVTVSWNSGALTSGVHTFPAVLQSSGLYSLSSVVTVPSSSLGTKTYTCNVDHKPSNTKVDKRVESKYGPPCPPCPAPPVAGPSVFLFPPKPKDTLMISRTPEVTCVVVDVSQEDPEVQFNWYVDGVEVHNAKTKPREEQFNSTYRVVSVLTVLHQDWLNGKEYKCKVSNKGLPSSIEKTISKAKGQPREPQVYTLPPSQEEMTKNQVSLTCLVKGFYPSDIAVEWESNGQPENNYKTTPPVLDSDGSFFLYSRLTVDKSRWQEGNVFSCSVMHEALHNRFTQKSLSLSPGK
light: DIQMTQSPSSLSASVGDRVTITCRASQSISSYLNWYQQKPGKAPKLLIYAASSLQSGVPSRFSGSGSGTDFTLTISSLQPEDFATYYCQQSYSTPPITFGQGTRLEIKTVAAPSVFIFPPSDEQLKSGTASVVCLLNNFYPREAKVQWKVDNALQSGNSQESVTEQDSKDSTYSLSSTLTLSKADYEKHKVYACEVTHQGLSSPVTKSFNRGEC
notes: IgG4 Fc domain; two distinct heavy chains with a common light chain; also called anti-FcεR1α×CD3 bispecific antibody; FcεR1α × hCD3

- 600 nM hFcεR1α.MMH Bound (RU) [1]: 46 RU
- Kd [1]: 303 nM
- koff [1]: 0.02 s⁻¹
- kon [1]: 65900 M⁻¹ s⁻¹
- t½ [1]: 36 s
- 600 nM hFcεR1α.MMH Bound (RU) [2]: 19 RU
- Kd [2]: 1550 nM
- koff [2]: 0.0991 s⁻¹
- kon [2]: 63900 M⁻¹ s⁻¹
- t½ [2]: 7.2 s
- EC50, decrease of primary human basophils within PBMC with activated CD8+ T cells [3]: 20 nM
- Maximum percent basophil decrease, PBMC with activated CD8+ T cells [3]: 80.1%
- Binding Ratio (MFI of Treated/MFI of Unstained) [4]: 48
- 600 nM mfFceR1a.MMH Bound (RU) [5]: 10 RU
- Kd [5]: 3350 nM
- koff [5]: 0.0445 s⁻¹
- kon [5]: 13300 M⁻¹ s⁻¹
- t½ [5]: 15.6 s
- Binding Ratio (MFI of Treated/MFI of Unstained) [6]: 248
- Binding Ratio (MFI of Treated/MFI of Unstained) [7]: 201
- EC80, cleaved caspase 3+ cleaved PARP+ HEK293/hFcεR1α/hFcεR1β/hFcεR1γ target cells with activated CD8+ T cells [8]: 0.126 nM
- Maximum percent apoptotic cells, HEK293/hFcεR1α/hFcεR1β/hFcεR1γ target cells with activated CD8+ T cells [8]: 56.5%
- Binding Ratio (MFI of Treated/MFI of Unstained) [9]: 142
- Binding Ratio (MFI of Treated/MFI of Unstained) [10]: 169
- EC50 [M], NFAT-luciferase in Jurkat/NFAT-luc with HEK293/hFcεR1α/hFcεR1β/hFcεR1γ cells, 10 nM IgE [11]: 4.9e-09 M
- EC50 [M], NFAT-luciferase in Jurkat/NFAT-luc with HEK293/hFcεR1α/hFcεR1β/hFcεR1γ cells, No IgE [11]: 6.8e-10 M
- Fold Activation, Jurkat/NFAT-luc with HEK293/hFcεR1α/hFcεR1β/hFcεR1γ cells, 10 nM IgE [11]: 25 fold
- Fold Activation, Jurkat/NFAT-luc with HEK293/hFcεR1α/hFcεR1β/hFcεR1γ cells, No IgE [11]: 23 fold
- 600 nM mfFceR1a.MMH Bound (RU) [12]: 26 RU
- Kd [12]: 467 nM
- koff [12]: 0.0195 s⁻¹
- kon [12]: 41700 M⁻¹ s⁻¹
- t½ [12]: 36 s
B2: bsAb24920D (bispecific antibody, human IgG4 S228P, kappa)
heavy 1: B1 heavy 1 with S30N, I35S, I37L, A72D, R83S, M92V, A96T, H103Y
heavy 2: B1 heavy 2
light: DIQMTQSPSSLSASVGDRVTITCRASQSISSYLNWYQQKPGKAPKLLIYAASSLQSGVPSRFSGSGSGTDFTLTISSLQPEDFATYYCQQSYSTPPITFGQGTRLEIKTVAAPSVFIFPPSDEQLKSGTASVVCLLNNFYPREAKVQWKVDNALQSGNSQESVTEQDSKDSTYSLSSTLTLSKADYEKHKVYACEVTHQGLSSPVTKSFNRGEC
notes: as for B1
